{"source": "patent US20050203007A1", "about": "(REGENTS OF THE UNIVERSITY OF MICHIGAN, published 2005)", "key": {"subtilisin Carlsberg": {"target": "T1, subtilisin Carlsberg (UniProt P00780 106-379)", "T1 sequence (looked up)": "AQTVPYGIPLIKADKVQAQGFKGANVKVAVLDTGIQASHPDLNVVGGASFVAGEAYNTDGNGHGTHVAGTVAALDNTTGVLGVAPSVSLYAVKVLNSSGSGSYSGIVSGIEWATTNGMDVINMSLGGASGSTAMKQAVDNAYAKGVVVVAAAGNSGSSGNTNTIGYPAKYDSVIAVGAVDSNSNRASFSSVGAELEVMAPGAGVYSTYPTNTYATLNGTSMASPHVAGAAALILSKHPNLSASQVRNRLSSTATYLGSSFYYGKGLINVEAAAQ", "assay": "enzyme inhibition"}, "secreted, soluble Kex2 [1]": {"target": "T2, secreted, soluble Kex2 (Saccharomyces cerevisiae, UniProt P13134 114-613, limits assumed)", "T2 construct": "Secreted, soluble construct; also called kexin", "T2 sequence (looked up)": "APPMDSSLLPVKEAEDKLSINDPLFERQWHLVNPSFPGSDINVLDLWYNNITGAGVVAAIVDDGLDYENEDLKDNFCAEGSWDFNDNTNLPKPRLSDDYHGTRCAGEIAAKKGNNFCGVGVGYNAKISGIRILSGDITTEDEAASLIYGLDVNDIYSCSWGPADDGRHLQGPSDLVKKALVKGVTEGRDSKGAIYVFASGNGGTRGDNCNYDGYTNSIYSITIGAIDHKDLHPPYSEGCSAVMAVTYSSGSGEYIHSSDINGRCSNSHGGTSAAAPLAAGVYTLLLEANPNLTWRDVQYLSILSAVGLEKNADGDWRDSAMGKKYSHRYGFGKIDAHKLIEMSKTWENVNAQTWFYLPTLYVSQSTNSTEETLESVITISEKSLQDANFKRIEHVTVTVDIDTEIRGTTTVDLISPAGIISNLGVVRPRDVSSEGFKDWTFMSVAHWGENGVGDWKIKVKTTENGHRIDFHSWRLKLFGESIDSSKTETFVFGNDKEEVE", "assay": "equilibrium enzyme inhibition"}, "secreted, soluble furin [2]": {"target": "T3, secreted, soluble furin (human, UniProt P09958 108-715, limits assumed)", "T3 construct": "Secreted, soluble construct; also called human furin", "T3 sequence (P09958 108-715 limits assumed)": "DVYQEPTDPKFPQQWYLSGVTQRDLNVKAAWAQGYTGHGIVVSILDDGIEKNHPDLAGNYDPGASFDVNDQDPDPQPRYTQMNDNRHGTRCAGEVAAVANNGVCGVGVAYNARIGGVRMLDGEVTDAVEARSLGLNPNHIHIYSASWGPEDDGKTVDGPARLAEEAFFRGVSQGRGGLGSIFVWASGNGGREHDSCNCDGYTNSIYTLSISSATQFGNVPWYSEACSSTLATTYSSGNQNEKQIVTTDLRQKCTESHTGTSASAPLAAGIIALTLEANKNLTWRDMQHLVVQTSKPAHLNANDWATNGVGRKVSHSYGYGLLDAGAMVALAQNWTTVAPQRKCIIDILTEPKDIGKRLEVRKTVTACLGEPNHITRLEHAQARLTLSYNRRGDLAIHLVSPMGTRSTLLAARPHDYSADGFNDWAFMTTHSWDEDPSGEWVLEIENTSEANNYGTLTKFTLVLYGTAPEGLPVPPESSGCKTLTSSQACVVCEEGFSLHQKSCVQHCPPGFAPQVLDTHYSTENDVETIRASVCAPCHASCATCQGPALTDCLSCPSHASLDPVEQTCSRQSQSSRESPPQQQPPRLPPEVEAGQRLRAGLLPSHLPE", "assay": "equilibrium enzyme inhibition"}, "secreted, soluble Kex2 [3]": {"target": "T2, secreted, soluble Kex2", "assay": "enzyme inhibition, purified variant", "protocol": "(§1) Affinities of eglin variants with secreted, soluble Kex2 (hereafter “Kex2”; Brenner, C. and Fuller, R. S. (1992) Proc. Natl. Acad. Sci. USA 89: 922-926) and secreted, soluble furin (hereafter, “furin”; Bravo, D. A. et al (1994) J. Biol. Chem. 269: 25830-25837; and Komiyama & Fuller (2000) Biochemistry 39: 15156-15165) were measured by incubating variants with the enzymes (˜0.5 to 2.0 nM) for 45 min to 1 h at 21° C. in one of two enzyme assay buffers. For Kex2, the buffer was 200 mM Bistris (pH 7.27) containing 1 mM CaCl₂ and 0.1% Triton X-100; and for furin, the buffer was 20 mM NaMES (pH 7.0) containing 1 mM CaCl₂ and 0.1% Triton X-100 for furin. 100 to 200 μL aliquots of reaction mixtures were transferred into triplicate wells of opaque 96 well plates (Costar), and residual enzyme activity was measured with an fmax fluorescence micro plate reader (Molecular Devices) by monitoring hydrolysis of a fluorogenic substrate Boc-Arg-Val-Arg-Arg-MCA. Data were graphically analyzed (KaleidaGraph) with an equation developed by Green and Work (1953). Site-directed mutagenesis at P2 and P6 of eglin c generated temporary inhibitors (Table 3) and exhausted possibility to improve affinity further with this approach."}, "secreted, soluble furin [4]": {"target": "T3, secreted, soluble furin", "assay": "enzyme inhibition, purified variant", "protocol": "as §1"}, "human PC7": {"target": "T4, human PC7 (human, UniProt Q16549 142-667, limits assumed)", "T4 sequence (looked up)": "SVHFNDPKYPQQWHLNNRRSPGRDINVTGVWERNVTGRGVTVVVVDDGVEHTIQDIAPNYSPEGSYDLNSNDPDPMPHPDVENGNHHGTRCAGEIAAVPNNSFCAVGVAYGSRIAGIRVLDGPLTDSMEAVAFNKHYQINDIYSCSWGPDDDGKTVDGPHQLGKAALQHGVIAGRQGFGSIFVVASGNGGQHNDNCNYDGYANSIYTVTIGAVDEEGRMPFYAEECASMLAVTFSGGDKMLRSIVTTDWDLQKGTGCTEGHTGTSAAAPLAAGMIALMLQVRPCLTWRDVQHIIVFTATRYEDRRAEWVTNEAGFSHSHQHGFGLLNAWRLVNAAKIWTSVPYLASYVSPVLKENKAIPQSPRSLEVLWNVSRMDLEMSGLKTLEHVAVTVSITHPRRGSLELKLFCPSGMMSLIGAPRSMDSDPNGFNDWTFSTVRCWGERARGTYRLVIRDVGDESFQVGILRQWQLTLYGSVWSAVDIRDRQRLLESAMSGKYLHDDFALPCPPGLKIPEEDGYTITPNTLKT", "assay": "enzyme inhibition, purified variant"}, "trypsin": {"target": "trypsin", "sequence (P00760 24-246)": "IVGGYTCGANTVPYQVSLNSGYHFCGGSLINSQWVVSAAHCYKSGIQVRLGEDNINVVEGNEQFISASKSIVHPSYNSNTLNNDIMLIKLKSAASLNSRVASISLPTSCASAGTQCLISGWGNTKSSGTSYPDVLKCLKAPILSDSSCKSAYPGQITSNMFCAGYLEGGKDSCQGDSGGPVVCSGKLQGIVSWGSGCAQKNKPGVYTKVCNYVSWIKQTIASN", "assay": "enzyme inhibition; temporary inhibitor of trypsin"}}, "data": [{"binder": "R4R1-eglin (designed binder, N-terminal Met removed; also called Tyr49-R4R1-; D33Y49) SMGSELKSFPEVVGKTVDQAREYFTLHYPQYDVYFLPEGSRVTRDLRYNRVRVFYNPGTNVVNHVPHVG", "values": [{"measurement": "Ka", "setting": "subtilisin Carlsberg", "result": "6.5e+08", "unit": "M⁻¹"}, {"measurement": "fold decrease in affinity relative to M4R1-eglin", "setting": "secreted, soluble Kex2 [1]", "result": 2.5, "unit": "fold"}, {"measurement": "fold stronger binding by Kex2 than by furin", "setting": "secreted, soluble Kex2 [1]", "result": "~3", "unit": "fold"}, {"measurement": "fold higher affinity than L1-eglin", "setting": "secreted, soluble furin [2]", "result": 46000, "unit": "fold"}, {"measurement": "fold increase in affinity relative to M4R1-eglin", "setting": "secreted, soluble furin [2]", "result": 1430, "unit": "fold"}, {"measurement": "Ki", "setting": "secreted, soluble Kex2 [3]", "result": 0.91, "unit": "nM"}, {"measurement": "Ki ratio (to R4R1- template)", "setting": "secreted, soluble Kex2 [3]", "result": 1}, {"measurement": "Ki", "setting": "secreted, soluble furin [4]", "result": 2.5, "unit": "nM"}, {"measurement": "Ki ratio (to R4R1- template)", "setting": "secreted, soluble furin [4]", "result": 1}, {"measurement": "Ki", "setting": "human PC7", "result": 1.3, "unit": "nM"}, {"measurement": "Ka", "setting": "trypsin", "result": "8.4e+09", "unit": "M⁻¹"}]}]}
